Residue numbers refer to the chain shown, from its start.
B1: Zif_3 (CC) (dsDNA)
DNA 1: TCGAGGTCGACGGTATCGCGTGGGCCCTCCACTAGTTCTAGAGCGGCCGCCAC
DNA 2: GTGGCGGCCGCTCTAGAACTAGTGGAGGGCCCACGCGATACCGTCGACCTCGA
B2: Zif_2 (CA) (dsDNA)
DNA 1: B1 DNA 1 with C26A
DNA 2: B1 DNA 2 with G28T
B3: Zif_4 (AG) (dsDNA)
DNA 1: B1 DNA 1 with C25A, C26G
DNA 2: B1 DNA 2 with G28C, G29T
B4: Zif_6 (AC) (dsDNA)
DNA 1: B1 DNA 1 with C25A
DNA 2: B1 DNA 2 with G29T
B5: Zif_5 (AA) (dsDNA)
DNA 1: B1 DNA 1 with C25A, C26A
DNA 2: B1 DNA 2 with G28T, G29T
B6: Zif_1 (CG) (dsDNA)
DNA 1: B1 DNA 1 with C26G
DNA 2: B1 DNA 2 with G28C

These binders were tested against T1, zif268 DBD R18D/E21N (DN) (UniProt P08046 331-420, R349D;E352N) (assay: competition EMSA (QuMFRA); 30 mM Tris-HCl pH 8.0, 50 mM NaCl, 0.1 mg/ml BSA, 3 mM DTT, 20 uM ZnSO4, 5 ug/ml poly(dI-dC), 1 h on ice; 10% polyacrylamide gel).

For B1, which binding signal is on record?
The binding signal was 2.61 Ka relative to CG.

Which binding signal does the source give for B2 here?
The binding signal was 1.21 Ka relative to CG.

With B3 as the binder, how does the binding signal read?
Its binding signal is 14.5 Ka relative to CG.

How did the binding signal turn out when B4 was run?
The binding signal was 11.8 Ka relative to CG.

B5 was tested. Which binding signal did it give?
The binding signal was 4.02 Ka relative to CG.

These binders were tested against T2, zif268 DBD R18Q (QE) (UniProt P08046 331-420, R349Q) in the same assay as above.

For B1, which binding signal is on record?
Its binding signal is 2.17 Ka relative to CG.

Which binding signal does the source give for B2 here?
The binding signal was 1.5 Ka relative to CG.

For B3, which binding signal is on record?
The binding signal was 1.3 Ka relative to CG.

B4 was tested. Which binding signal did it give?
The binding signal was 1.93 Ka relative to CG.

B5 was tested. Which binding signal did it give?
Its binding signal is 1.36 Ka relative to CG.

The binders below were run against T3, zif268 DBD R18Q/E21N (QN) (UniProt P08046 331-420, R349Q;E352N) in the same assay as above.

With B1 as the binder, how does the binding signal read?
The binding signal was 0.53 Ka relative to CG.

How did the binding signal turn out when B2 was run?
The binding signal was 0.49 Ka relative to CG.

Which binding signal does the source give for B3 here?
Its binding signal is 4.45 Ka relative to CG.

With B4 as the binder, how does the binding signal read?
Its binding signal is 2.78 Ka relative to CG.

B5 was tested. Which binding signal did it give?
The binding signal was 2.47 Ka relative to CG.

The binders below were run against T4, zif268 DBD E21N (RN) (UniProt P08046 331-420, E352N) in the same assay as above.

For B1, which binding signal is on record?
The binding signal was 0.41 Ka relative to CG.

Which binding signal does the source give for B2 here?
Its binding signal is 0.36 Ka relative to CG.

Which binding signal does the source give for B3 here?
Its binding signal is 1.29 Ka relative to CG.

How did the binding signal turn out when B4 was run?
The binding signal was 0.94 Ka relative to CG.

For B5, which binding signal is on record?
Its binding signal is 0.68 Ka relative to CG.

The binders below were run against T5, zif268 DBD wild type (RE) (UniProt P08046 331-420) in the same assay as above.

How did the binding signal turn out when B1 was run?
The binding signal was 0.082 Ka relative to CG.

Which binding signal does the source give for B2 here?
The binding signal was 0.27 Ka relative to CG.

Which binding signal does the source give for B3 here?
Its binding signal is 0.15 Ka relative to CG.

Which binding signal does the source give for B4 here?
The binding signal was 0.041 Ka relative to CG.

B5 was tested. Which binding signal did it give?
The binding signal was 0.064 Ka relative to CG.

Each binder was assayed against T6, zif268 DBD R18D (DE) (UniProt P08046 331-420, R349D) in the same assay as above.

For B1, which binding signal is on record?
Its binding signal is 1.91 Ka relative to CG.

B2 was tested. Which binding signal did it give?
The binding signal was 1.16 Ka relative to CG.

With B3 as the binder, how does the binding signal read?
Its binding signal is 1.48 Ka relative to CG.

Which binding signal does the source give for B4 here?
The binding signal was 3.08 Ka relative to CG.

How did the binding signal turn out when B5 was run?
The binding signal was 2.25 Ka relative to CG.

Each binder was assayed against T1, zif268 DBD R18D/E21N (DN) (assay: EMSA (Scatchard x QuMFRA); derived; 30 mM Tris-HCl pH 8.0, 50 mM NaCl, 0.1 mg/ml BSA, 3 mM DTT, 20 uM ZnSO4, 5 ug/ml poly(dI-dC), 1 h on ice; 10% polyacrylamide gel).

For B1, which Ka is on record?
The Ka was 3.1 10^6 M-1.

Which Ka does the source give for B2 here?
The Ka was 1.4 10^6 M-1.

B4 was tested. Which Ka did it give?
Its Ka is 14 10^6 M-1.

B5 was tested. Which Ka did it give?
The Ka was 4.8 10^6 M-1.

With B6 as the binder, how does the Ka read?
The Ka was 1.2 10^6 M-1.

These binders were tested against T2, zif268 DBD R18Q (QE) in the same assay as above.

B2 was tested. Which Ka did it give?
The Ka was 4.5 10^6 M-1.

How did the Ka turn out when B3 was run?
The Ka was 3.9 10^6 M-1.

With B4 as the binder, how does the Ka read?
Its Ka is 5.7 10^6 M-1.

How did the Ka turn out when B5 was run?
Its Ka is 4 10^6 M-1.

How did the Ka turn out when B6 was run?
The Ka was 3 10^6 M-1.

What follows are binders tested against T3, zif268 DBD R18Q/E21N (QN) in the same assay as above.

For B1, which Ka is on record?
Its Ka is 3.9 10^6 M-1.

How did the Ka turn out when B2 was run?
Its Ka is 3.5 10^6 M-1.

Which Ka does the source give for B4 here?
Its Ka is 21 10^6 M-1.

For B5, which Ka is on record?
The Ka was 18 10^6 M-1.

Which Ka does the source give for B6 here?
The Ka was 7.4 10^6 M-1.

Each binder was assayed against T4, zif268 DBD E21N (RN) in the same assay as above.

For B2, which Ka is on record?
The Ka was 30 10^6 M-1.

How did the Ka turn out when B3 was run?
The Ka was 105 10^6 M-1.

Which Ka does the source give for B4 here?
Its Ka is 77 10^6 M-1.

Which Ka does the source give for B5 here?
The Ka was 56 10^6 M-1.

B6 was tested. Which Ka did it give?
The Ka was 81 10^6 M-1.

Each binder was assayed against T5, zif268 DBD wild type (RE) in the same assay as above.

Which Ka does the source give for B2 here?
The Ka was 109 10^6 M-1.

Which Ka does the source give for B3 here?
The Ka was 63 10^6 M-1.

B4 was tested. Which Ka did it give?
The Ka was 16 10^6 M-1.

Which Ka does the source give for B5 here?
Its Ka is 26 10^6 M-1.

With B6 as the binder, how does the Ka read?
Its Ka is 406 10^6 M-1.

What follows are binders tested against T6, zif268 DBD R18D (DE) in the same assay as above.

How did the Ka turn out when B2 was run?
The Ka was 2.8 10^6 M-1.

B3 was tested. Which Ka did it give?
The Ka was 3.6 10^6 M-1.

For B4, which Ka is on record?
Its Ka is 5.5 10^6 M-1.

With B5 as the binder, how does the Ka read?
The Ka was 3.7 10^6 M-1.

Which Ka does the source give for B6 here?
Its Ka is 2.5 10^6 M-1.

The binders below were run against T1, zif268 DBD R18D/E21N (DN) (assay: EMSA (Scatchard); 30 mM Tris-HCl pH 8.0, 50 mM NaCl, 0.1 mg/ml BSA, 3 mM DTT, 20 uM ZnSO4, 5 ug/ml poly(dI-dC), 1 h on ice; 10% polyacrylamide gel).

With B3 as the binder, how does the Ka read?
The Ka was 17 10^6 M-1.

Each binder was assayed against T2, zif268 DBD R18Q (QE) in the same assay as above.

How did the Ka turn out when B1 was run?
The Ka was 6.4 10^6 M-1.

The binders below were run against T3, zif268 DBD R18Q/E21N (QN) in the same assay as above.

B3 was tested. Which Ka did it give?
Its Ka is 33 10^6 M-1.

These binders were tested against T4, zif268 DBD E21N (RN) in the same assay as above.

For B1, which Ka is on record?
Its Ka is 33 10^6 M-1.

These binders were tested against T5, zif268 DBD wild type (RE) in the same assay as above.

For B1, which Ka is on record?
The Ka was 33 10^6 M-1.

Each binder was assayed against T6, zif268 DBD R18D (DE) in the same assay as above.

For B1, which Ka is on record?
The Ka was 4.7 10^6 M-1.
